Tests used:
[1] = tested on: CAPN5-370-380 peptide (RQNRGGGCINH)
[2] = tested on: homologous regions of other CAPN members
CAPN5p.372-378 peptide = CAPN5p.372-378 peptide (UniProt O15484)

Sequence of CAPN5-R243L (chain, as listed by the source R243L): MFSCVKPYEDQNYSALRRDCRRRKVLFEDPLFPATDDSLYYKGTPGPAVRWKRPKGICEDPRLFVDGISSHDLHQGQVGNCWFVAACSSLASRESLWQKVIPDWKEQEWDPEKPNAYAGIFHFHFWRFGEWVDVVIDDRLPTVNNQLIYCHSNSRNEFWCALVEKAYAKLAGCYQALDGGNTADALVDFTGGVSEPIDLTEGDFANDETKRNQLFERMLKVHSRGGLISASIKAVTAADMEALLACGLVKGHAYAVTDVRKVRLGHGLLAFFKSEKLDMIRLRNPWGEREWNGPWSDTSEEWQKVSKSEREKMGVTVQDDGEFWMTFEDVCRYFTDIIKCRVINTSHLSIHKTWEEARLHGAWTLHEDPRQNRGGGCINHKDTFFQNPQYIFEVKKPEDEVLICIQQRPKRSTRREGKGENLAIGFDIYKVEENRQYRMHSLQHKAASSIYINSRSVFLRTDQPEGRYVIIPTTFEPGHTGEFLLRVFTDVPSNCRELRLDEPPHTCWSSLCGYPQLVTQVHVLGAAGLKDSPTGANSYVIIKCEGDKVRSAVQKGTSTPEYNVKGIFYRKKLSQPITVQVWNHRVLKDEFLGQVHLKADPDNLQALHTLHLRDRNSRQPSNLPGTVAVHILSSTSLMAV
Sequence of CAPN1 WT (P07384 2-714): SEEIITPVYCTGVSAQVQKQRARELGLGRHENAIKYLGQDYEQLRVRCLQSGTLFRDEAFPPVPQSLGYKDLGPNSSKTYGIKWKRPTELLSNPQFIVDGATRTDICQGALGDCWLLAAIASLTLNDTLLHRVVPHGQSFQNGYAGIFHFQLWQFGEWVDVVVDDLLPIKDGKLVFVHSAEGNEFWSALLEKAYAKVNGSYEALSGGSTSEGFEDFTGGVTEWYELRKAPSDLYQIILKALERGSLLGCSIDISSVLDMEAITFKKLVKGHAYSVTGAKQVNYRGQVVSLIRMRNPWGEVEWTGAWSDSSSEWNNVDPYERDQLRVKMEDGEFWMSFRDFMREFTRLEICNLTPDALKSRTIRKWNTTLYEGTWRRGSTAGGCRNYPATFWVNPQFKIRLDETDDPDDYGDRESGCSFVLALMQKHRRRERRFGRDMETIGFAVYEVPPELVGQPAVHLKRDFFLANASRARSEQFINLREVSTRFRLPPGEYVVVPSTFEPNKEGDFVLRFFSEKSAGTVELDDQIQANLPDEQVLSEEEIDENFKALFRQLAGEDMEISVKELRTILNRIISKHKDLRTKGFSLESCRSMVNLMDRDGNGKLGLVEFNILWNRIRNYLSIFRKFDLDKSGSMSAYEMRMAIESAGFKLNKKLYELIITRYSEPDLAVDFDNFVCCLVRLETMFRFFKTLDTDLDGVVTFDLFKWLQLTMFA

## MBP-CAPN5 WT
Pep-2-Mod
Sequence of Pep-2-Mod (chain, as listed by the source): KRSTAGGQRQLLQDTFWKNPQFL
  reaction rate (initial velocity of proteolysis): Modification of the amino acids slows the reaction rate
Pep-1-Mod
Sequence of Pep-1-Mod (chain, as listed by the source): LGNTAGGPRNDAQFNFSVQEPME
  reaction rate (initial velocity of proteolysis): Modification of the amino acids slows the reaction rate

## CAPN5-R243L
CAPN5-370-390 peptide
Sequence of CAPN5-370-390 peptide (chain, as listed by the source): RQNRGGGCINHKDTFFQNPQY
  fluorescent intensity (FRET substrate proteolysis): the greatest fluorescent intensity is detected with substrates CAPN5 (p370-390), CAPN5 (370-380), and PDGFB (155-170)
[1]
  cleavage (change in fluorescence): the CAPN5-370-380 fragment was the most sensitive to cleavage by both WT and R243L CAPN5
  fluorescent intensity (FRET substrate proteolysis): the greatest fluorescent intensity is detected with substrates CAPN5 (p370-390), CAPN5 (370-380), and PDGFB (155-170)
PDGFB (155-170) peptide
  fluorescent intensity (FRET substrate proteolysis): the greatest fluorescent intensity is detected with substrates CAPN5 (p370-390), CAPN5 (370-380), and PDGFB (155-170)

## CAPN1 WT
[2]
  proteolysis: CAPN1 does not appear to proteolyze these regions

## CAPN5 WT (Homo sapiens calpain 5)
EPLFAERK peptide
  proteolysis: it is not proteolyzed by CAPN5
  proteolysis (fluorescence): very limited proteolysis when incubated with CAPN5-WT
CAPN5p.372-378 peptide
  cleavage (fluorescence): There was mild cleavage of the 7 aa peptide was observed
[2]
  proteolysis: CAPN5 did not proteolyze homologous regions of other CAPN members as well as it proteolyzed its own site
CAPN5-370-390 peptide
  cleavage (fluorescence): The 21 aa peptide was cleaved slower and does not show cleavage substrate inhibition
[1]
  cleavage (change in fluorescence): the CAPN5-370-380 fragment was the most sensitive to cleavage by both WT and R243L CAPN5
  cleavage (fluorescence): rapid and high cleavage of the 11 aa peptide
  fluorescent intensity (FRET substrate proteolysis): CAPN5-WT proteolyzes the substrate, CAPN5 (p370-380), at a higher rate than other peptides
  proteolysis (fluorescence): The peptide shows high proteolysis when incubated with CAPN5-WT
Cyclic CAPN5 p.370-80
  initial reaction rate (proteolysis of CAPN5p.370-80 by CAPN5 WT): Addition of 10 µM Cyclic CAPN5 p.370-80 slows the initial reaction rate by 40%
  initial velocity versus substrate concentration, with and without 10 µM cyclic peptide: Increasing concentrations of substrate does not overcome inhibition by cyclic peptide
CAPN14 peptide
Sequence of CAPN14 peptide (chain, as listed by the source): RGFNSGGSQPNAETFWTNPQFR
  proteolysis: there was some proteolysis of the CAPN14 peptide
